Source: IntAct's records for PubMed 29039417

B1: Protein PTHB1 (Homo sapiens), Q3SYG4 (parent)
chain: MSLFKARDWWSTILGDKEEFDQGCLCLANVDNSGNGQDKIIVGSFMGYLRIFSPHPAKTGDGAQAEDLLLEVDLRDPVLQVEVGKFVSGTEMLHLAVLHSRKLCVYSVSGTLGNVEHGNQCQMKLMYEHNLQRTACNMTYGSFGGVKGRDLICIQSMDGMLMVFEQESYAFGRFLPGFLLPGPLAYSSRTDSFLTVSSCQQVESYKYQVLAFATDADKRQETEQQKLGSGKRLVVDWTLNIGEQALDICIVSFNQSASSVFVLGERNFFCLKDNGQIRFMKKLDWSPSCFLPYCSVSEGTINTLIGNHNNMLHIYQDVTLKWATQLPHIPVAVRVGCLHDLKGVIVTLSDDGHLQCSYLGTDPSLFQAPNVQSRELNYDELDVEMKELQKIIKDVNKSQGVWPMTEREDDLNVSVVVSPNFDSVSQATDVEVGTDLVPSVTVKVTLQNRVILQKAKLSVYVQPPLELTCDQFTFEFMTPDLTRTVSFSVYLKRSYTPSELEGNAVVSYSRPTDRNPDGIPRVIQCKFRLPLKLICLPGQPSKTASHKITIDTNKSPVSLLSLFPGFASQSDDDQVNVMGFHFLGGARITVLASKTSQRYRIQSEQFEDLWLITNELILRLQEYFEKQGVKDFACSFSGSIPLQEYFELIDHHFELRINGEKLEELLSERAVQFRAIQRRLLARFKDKTPAPLQHLDTLLDGTYKQVIALADAVEENQGNLFQSFTRLKSATHLVILLIALWQKLSADQVAILEAAFLPLQEDTQELGWEETVDAAISHLLKTCLSKSSKEQALNLNSQLNIPKDTSQLKKHITLLCDRLSKGGRLCLSTDAAAPQTMVMPGGCTTIPESDLEERSVEQDSTELFTNHRHLTAETPRPEVSPLQGVSE
partner: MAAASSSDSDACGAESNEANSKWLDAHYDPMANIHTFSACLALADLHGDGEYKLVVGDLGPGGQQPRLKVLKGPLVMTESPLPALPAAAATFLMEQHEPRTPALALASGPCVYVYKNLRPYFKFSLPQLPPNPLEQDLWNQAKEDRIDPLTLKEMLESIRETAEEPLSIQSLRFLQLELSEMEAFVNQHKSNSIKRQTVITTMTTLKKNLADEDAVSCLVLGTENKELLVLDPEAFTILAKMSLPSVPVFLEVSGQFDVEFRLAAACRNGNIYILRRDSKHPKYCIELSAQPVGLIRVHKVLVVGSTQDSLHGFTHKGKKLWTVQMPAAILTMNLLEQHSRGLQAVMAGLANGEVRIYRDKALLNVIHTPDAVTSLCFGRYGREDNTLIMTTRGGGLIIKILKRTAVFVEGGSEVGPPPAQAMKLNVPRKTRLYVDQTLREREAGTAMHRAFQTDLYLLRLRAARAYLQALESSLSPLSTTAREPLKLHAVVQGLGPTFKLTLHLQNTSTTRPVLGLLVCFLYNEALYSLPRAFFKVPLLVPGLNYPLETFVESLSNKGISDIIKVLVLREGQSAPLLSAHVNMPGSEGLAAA

Variants of: B1
Details: with bbs1_human BBS1, Q8NFJ9
For L780E, the “effect of a mutation on the interaction” value was “with no effect”. With K454E the “effect of a mutation on the interaction” value was “with no effect”. For S637A, the “effect of a mutation on the interaction” value was “with no effect”. L699A was tested, and the “effect of a mutation on the interaction” value was “with no effect”. With L699K the “effect of a mutation on the interaction” value was “disrupting interaction strength”. For D608A, the “effect of a mutation on the interaction” value was “with no effect”. For D608K, the “effect of a mutation on the interaction” value was “with no effect”. For P834A, the “effect of a mutation on the interaction” value was “with no effect”. For F487A, the “effect of a mutation on the interaction” value was “with no effect”. For F487E, the “effect of a mutation on the interaction” value was “with no effect”. With L759K the “effect of a mutation on the interaction” value was “with no effect”. N614E was tested, and the “effect of a mutation on the interaction” value was “with no effect”. For G822A, the “effect of a mutation on the interaction” value was “with no effect”. With D696A the “effect of a mutation on the interaction” value was “with no effect”. In the case of D696K, the “effect of a mutation on the interaction” value is reported as “with no effect”. In the case of V557E, the “effect of a mutation on the interaction” value is reported as “with no effect”. V557A was tested, and the “effect of a mutation on the interaction” value was “with no effect”. In the case of S806E, the “effect of a mutation on the interaction” value is reported as “with no effect”. For E501A, the “effect of a mutation on the interaction” value was “with no effect”. In the case of G628E, the “effect of a mutation on the interaction” value is reported as “with no effect”. In the case of E654K, the “effect of a mutation on the interaction” value is reported as “with no effect”. With P875A the “effect of a mutation on the interaction” value was “with no effect”. Q883E was tested, and the “effect of a mutation on the interaction” value was “with no effect”. L766A was tested, and the “effect of a mutation on the interaction” value was “with no effect”. D850K was tested, and the “effect of a mutation on the interaction” value was “with no effect”. For S639E, the “effect of a mutation on the interaction” value was “with no effect”. M837A was tested, and the “effect of a mutation on the interaction” value was “with no effect”. In the case of D711E, the “effect of a mutation on the interaction” value is reported as “with no effect”. V430K was tested, and the “effect of a mutation on the interaction” value was “with no effect”. With Q605E the “effect of a mutation on the interaction” value was “with no effect”. With S561E the “effect of a mutation on the interaction” value was “with no effect”. S849E was tested, and the “effect of a mutation on the interaction” value was “with no effect”. With A586K the “effect of a mutation on the interaction” value was “with no effect”. R656E was tested, and the “effect of a mutation on the interaction” value was “with no effect”. For E431A, the “effect of a mutation on the interaction” value was “with no effect”. For V444K, the “effect of a mutation on the interaction” value was “with no effect”. For Q693A, the “effect of a mutation on the interaction” value was “with no effect”. For Q693K, the “effect of a mutation on the interaction” value was “with no effect”. For S880K, the “effect of a mutation on the interaction” value was “with no effect”. With R669K the “effect of a mutation on the interaction” value was “with no effect”. E663K was tested, and the “effect of a mutation on the interaction” value was “with no effect”. S545K was tested, and the “effect of a mutation on the interaction” value was “with no effect”. With V575E the “effect of a mutation on the interaction” value was “with no effect”. T763E was tested, and the “effect of a mutation on the interaction” value was “with no effect”. In the case of V590E, the “effect of a mutation on the interaction” value is reported as “with no effect”. D513K was tested, and the “effect of a mutation on the interaction” value was “with no effect”. For D513A, the “effect of a mutation on the interaction” value was “with no effect”. For V734G, the “effect of a mutation on the interaction” value was “disrupting interaction strength”. For L609E, the “effect of a mutation on the interaction” value was “with no effect”. With L609A the “effect of a mutation on the interaction” value was “with no effect”. In the case of L583A, the “effect of a mutation on the interaction” value is reported as “with no effect”. S418K was tested, and the “effect of a mutation on the interaction” value was “with no effect”. In the case of L793E, the “effect of a mutation on the interaction” value is reported as “with no effect”. In the case of L436E, the “effect of a mutation on the interaction” value is reported as “with no effect”. In the case of R449A, the “effect of a mutation on the interaction” value is reported as “with no effect”. For L562K, the “effect of a mutation on the interaction” value was “with no effect”. With P438K the “effect of a mutation on the interaction” value was “with no effect”. In the case of Q462A, the “effect of a mutation on the interaction” value is reported as “with no effect”. E753K was tested, and the “effect of a mutation on the interaction” value was “disrupting interaction strength”. For Q798A, the “effect of a mutation on the interaction” value was “with no effect”. For L882E, the “effect of a mutation on the interaction” value was “with no effect”. With C634S the “effect of a mutation on the interaction” value was “disrupting interaction strength”. For C634E, the “effect of a mutation on the interaction” value was “with no effect”. In the case of P537E, the “effect of a mutation on the interaction” value is reported as “with no effect”. In the case of I523K, the “effect of a mutation on the interaction” value is reported as “with no effect”. For A633V, the “effect of a mutation on the interaction” value was “disrupting interaction strength”. With D686A the “effect of a mutation on the interaction” value was “with no effect”. V450A was tested, and the “effect of a mutation on the interaction” value was “with no effect”. S593A was tested, and the “effect of a mutation on the interaction” value was “with no effect”. For I657E, the “effect of a mutation on the interaction” value was “with no effect”. With D517E the “effect of a mutation on the interaction” value was “with no effect”. K443A was tested, and the “effect of a mutation on the interaction” value was “with no effect”. With A455E the “effect of a mutation on the interaction” value was “with no effect”. In the case of Q447A, the “effect of a mutation on the interaction” value is reported as “with no effect”. For G767A, the “effect of a mutation on the interaction” value was “with no effect”. With I548K the “effect of a mutation on the interaction” value was “with no effect”. With V629K the “effect of a mutation on the interaction” value was “with no effect”. F606A was tested, and the “effect of a mutation on the interaction” value was “with no effect”. With T829K the “effect of a mutation on the interaction” value was “with no effect”. For S486K, the “effect of a mutation on the interaction” value was “with no effect”. S458A was tested, and the “effect of a mutation on the interaction” value was “with no effect”. In the case of R598A, the “effect of a mutation on the interaction” value is reported as “with no effect”. In the case of V856E, the “effect of a mutation on the interaction” value is reported as “with no effect”. For L870A, the “effect of a mutation on the interaction” value was “with no effect”. With Q602E the “effect of a mutation on the interaction” value was “with no effect”. S603K was tested, and the “effect of a mutation on the interaction” value was “with no effect”. In the case of H869K, the “effect of a mutation on the interaction” value is reported as “with no effect”. For V772A, the “effect of a mutation on the interaction” value was “with no effect”. For L727A, the “effect of a mutation on the interaction” value was “with no effect”. For Q597R, the “effect of a mutation on the interaction” value was “disrupting interaction strength”.
